Key:
Test in all cases: biochemical
Type in all cases: biochemical
266 human kinases [1] = biological target: T1, 266 human kinases (Homo sapiens, UniProt O00141); conditions: SGK(h); 100 μM
T1 sequence (O00141 1-431): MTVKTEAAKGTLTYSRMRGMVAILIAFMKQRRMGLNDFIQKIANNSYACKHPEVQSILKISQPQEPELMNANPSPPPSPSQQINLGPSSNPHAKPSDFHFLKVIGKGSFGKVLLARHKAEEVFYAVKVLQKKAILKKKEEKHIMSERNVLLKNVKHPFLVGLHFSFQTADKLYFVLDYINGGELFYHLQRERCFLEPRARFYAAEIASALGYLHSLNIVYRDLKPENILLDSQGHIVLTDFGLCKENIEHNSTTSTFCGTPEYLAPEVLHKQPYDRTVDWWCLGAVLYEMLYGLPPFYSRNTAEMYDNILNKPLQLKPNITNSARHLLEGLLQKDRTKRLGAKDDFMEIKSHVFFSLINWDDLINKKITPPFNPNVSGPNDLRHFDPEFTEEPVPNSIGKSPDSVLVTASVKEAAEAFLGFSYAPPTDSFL
In short: (§1)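 A filter-capture radiometric assay: phosphorylated cationic substrate binds an anionic membrane and is scintillation-counted, with values referenced to full-activity control.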

266 human kinases [2] = biological target: T2, 266 human kinases (Homo sapiens, UniProt O15111); conditions: IKKα(h); 100 μM
T2 sequence (O15111 1-745): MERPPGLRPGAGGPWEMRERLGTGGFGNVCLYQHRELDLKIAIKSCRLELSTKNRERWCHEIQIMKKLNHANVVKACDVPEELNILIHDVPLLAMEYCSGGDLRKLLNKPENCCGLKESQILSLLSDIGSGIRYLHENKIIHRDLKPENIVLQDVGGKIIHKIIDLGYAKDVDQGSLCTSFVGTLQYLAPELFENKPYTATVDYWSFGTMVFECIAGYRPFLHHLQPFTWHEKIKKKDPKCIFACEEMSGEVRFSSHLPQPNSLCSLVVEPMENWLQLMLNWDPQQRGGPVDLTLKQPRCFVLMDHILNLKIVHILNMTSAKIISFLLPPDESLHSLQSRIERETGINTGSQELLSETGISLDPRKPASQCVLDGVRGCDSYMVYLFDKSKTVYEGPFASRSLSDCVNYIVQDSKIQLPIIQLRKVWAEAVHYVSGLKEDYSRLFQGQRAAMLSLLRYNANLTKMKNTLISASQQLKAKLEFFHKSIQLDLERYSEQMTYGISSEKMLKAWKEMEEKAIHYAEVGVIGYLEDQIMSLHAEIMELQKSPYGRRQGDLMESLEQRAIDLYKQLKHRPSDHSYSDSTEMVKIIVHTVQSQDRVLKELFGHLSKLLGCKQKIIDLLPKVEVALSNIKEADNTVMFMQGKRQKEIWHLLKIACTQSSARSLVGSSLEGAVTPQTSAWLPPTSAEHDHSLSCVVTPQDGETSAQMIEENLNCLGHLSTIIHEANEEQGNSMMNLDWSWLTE
In short: as §1

266 human kinases [3] = biological target: 266 human kinases (Homo sapiens, UniProt O96017); conditions: CHK2(h); 100 μM
In short: as §1

266 human kinases [4] = biological target: 266 human kinases (Homo sapiens, UniProt P00519, Y253F); conditions: Abl(Y253F)(h); 100 μM
In short: as §1

266 human kinases [5] = biological target: 266 human kinases (Homo sapiens, UniProt P16234, D842V); conditions: PDGFRα(D842V)(h); 100 μM
In short: as §1

266 human kinases [6] = biological target: 266 human kinases (Homo sapiens, UniProt P24941); conditions: 100 μM
In short: as §1

266 human kinases [7] = biological target: 266 human kinases (Homo sapiens, UniProt P35916); conditions: Flt4(h); 100 μM
In short: as §1

266 human kinases [8] = biological target: 266 human kinases (Homo sapiens, UniProt P49840); conditions: GSK3α(h); 100 μM
In short: as §1

266 human kinases [9] = biological target: T3, 266 human kinases (Homo sapiens, UniProt Q13188); conditions: MST2(h); 100 μM
T3 sequence (Q13188 1-491): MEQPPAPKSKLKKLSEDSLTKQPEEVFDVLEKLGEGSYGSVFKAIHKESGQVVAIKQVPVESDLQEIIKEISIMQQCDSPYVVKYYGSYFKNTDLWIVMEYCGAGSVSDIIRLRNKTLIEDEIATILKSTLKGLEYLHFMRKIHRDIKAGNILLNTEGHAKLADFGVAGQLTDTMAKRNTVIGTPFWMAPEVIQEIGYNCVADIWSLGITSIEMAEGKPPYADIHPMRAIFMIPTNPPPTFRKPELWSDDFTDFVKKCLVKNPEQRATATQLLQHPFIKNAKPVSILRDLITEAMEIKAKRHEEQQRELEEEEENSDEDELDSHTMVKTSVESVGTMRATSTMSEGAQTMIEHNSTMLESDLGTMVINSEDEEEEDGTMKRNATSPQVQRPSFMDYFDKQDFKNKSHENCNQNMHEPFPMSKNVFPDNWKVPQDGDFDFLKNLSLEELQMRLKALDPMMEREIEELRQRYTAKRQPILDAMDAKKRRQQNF
In short: as §1

266 human kinases [10] = biological target: 266 human kinases (Homo sapiens, UniProt Q16832); conditions: DDR2(h); 100 μM
In short: as §1

266 human kinases [11] = biological target: 266 human kinases (Homo sapiens, UniProt Q8N4C8); conditions: MINK(h); 100 μM
In short: as §1

266 human kinases [12] = biological target: 266 human kinases (Homo sapiens, UniProt Q9H2X6); conditions: HIPK2(h); 100 μM
In short: as §1

266 human kinases [13] = biological target: 266 human kinases (Homo sapiens, UniProt Q9P0L2); conditions: MARK1(h); 100 μM
In short: as §1

266 human kinases [14] = biological target: 266 human kinases (Homo sapiens, UniProt P11362, V561M); conditions: FGFR1(V561M)(h); 100 μM
In short: as §1

266 human kinases [15] = biological target: 266 human kinases (Homo sapiens, UniProt Q02763, R849W); conditions: Tie2(R849W)(h); 100 μM
In short: as §1

Chain of 266 human kinases (Homo sapiens, UniProt O96017) (O96017 whole entry): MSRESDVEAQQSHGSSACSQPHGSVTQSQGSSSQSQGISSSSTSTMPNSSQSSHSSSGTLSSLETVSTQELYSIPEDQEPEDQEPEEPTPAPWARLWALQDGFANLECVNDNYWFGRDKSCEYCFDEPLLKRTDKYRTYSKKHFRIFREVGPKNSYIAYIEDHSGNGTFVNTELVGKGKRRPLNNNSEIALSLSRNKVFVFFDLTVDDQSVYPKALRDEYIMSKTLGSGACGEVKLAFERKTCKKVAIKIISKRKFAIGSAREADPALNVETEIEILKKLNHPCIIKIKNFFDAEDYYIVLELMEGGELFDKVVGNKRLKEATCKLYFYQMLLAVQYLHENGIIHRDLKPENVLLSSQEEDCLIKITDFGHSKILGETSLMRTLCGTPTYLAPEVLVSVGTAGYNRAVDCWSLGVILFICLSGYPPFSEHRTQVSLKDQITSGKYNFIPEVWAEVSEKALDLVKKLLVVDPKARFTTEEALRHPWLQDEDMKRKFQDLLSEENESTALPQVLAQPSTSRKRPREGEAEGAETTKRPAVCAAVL
Chain of 266 human kinases (Homo sapiens, UniProt P49840) (P49840 whole entry): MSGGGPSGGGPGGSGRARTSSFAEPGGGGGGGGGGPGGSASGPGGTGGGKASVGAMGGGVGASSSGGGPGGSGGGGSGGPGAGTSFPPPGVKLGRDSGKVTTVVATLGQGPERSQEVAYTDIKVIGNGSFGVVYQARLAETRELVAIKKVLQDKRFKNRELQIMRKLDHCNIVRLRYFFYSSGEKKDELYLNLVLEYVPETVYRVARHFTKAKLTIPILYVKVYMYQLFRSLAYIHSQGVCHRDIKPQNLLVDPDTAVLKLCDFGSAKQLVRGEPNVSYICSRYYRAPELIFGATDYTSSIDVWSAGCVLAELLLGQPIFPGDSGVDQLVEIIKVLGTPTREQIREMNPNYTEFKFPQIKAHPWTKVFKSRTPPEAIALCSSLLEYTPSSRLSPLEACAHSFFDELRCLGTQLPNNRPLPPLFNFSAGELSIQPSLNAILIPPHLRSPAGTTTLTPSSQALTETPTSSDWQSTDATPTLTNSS
Chain of 266 human kinases (Homo sapiens, UniProt Q9H2X6) (Q9H2X6 whole entry): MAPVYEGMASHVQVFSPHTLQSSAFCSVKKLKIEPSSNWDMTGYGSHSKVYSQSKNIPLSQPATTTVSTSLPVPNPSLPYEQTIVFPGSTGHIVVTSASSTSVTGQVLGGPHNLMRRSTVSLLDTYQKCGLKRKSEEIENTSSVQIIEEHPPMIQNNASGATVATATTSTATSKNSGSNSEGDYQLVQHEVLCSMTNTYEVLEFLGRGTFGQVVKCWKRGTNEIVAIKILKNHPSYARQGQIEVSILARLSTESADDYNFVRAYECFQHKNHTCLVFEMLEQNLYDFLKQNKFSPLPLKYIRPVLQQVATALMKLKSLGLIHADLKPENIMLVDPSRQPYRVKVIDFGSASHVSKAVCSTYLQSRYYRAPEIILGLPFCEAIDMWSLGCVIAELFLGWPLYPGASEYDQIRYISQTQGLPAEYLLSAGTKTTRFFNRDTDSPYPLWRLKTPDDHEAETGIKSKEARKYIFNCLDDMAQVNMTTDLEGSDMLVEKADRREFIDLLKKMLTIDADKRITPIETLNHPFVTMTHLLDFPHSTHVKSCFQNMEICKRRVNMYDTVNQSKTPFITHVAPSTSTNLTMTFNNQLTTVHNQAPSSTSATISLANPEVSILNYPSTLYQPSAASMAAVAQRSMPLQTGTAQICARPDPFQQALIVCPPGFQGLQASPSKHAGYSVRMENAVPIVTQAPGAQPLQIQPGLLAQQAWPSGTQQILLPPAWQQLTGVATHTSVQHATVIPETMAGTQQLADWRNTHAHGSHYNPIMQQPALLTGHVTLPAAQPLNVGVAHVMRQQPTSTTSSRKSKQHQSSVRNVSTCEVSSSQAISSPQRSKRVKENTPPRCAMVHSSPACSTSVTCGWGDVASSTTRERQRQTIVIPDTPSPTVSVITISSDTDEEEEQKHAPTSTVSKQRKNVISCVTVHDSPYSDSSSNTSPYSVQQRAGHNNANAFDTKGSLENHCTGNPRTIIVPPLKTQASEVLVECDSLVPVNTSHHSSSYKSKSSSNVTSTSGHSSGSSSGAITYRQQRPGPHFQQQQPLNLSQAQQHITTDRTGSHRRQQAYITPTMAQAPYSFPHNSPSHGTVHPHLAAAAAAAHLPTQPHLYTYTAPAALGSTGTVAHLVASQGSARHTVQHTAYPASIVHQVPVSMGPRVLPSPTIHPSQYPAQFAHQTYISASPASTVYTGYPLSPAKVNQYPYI
Chain of 266 human kinases (Homo sapiens, UniProt P11362, V561M) (P11362 22-822 V561M): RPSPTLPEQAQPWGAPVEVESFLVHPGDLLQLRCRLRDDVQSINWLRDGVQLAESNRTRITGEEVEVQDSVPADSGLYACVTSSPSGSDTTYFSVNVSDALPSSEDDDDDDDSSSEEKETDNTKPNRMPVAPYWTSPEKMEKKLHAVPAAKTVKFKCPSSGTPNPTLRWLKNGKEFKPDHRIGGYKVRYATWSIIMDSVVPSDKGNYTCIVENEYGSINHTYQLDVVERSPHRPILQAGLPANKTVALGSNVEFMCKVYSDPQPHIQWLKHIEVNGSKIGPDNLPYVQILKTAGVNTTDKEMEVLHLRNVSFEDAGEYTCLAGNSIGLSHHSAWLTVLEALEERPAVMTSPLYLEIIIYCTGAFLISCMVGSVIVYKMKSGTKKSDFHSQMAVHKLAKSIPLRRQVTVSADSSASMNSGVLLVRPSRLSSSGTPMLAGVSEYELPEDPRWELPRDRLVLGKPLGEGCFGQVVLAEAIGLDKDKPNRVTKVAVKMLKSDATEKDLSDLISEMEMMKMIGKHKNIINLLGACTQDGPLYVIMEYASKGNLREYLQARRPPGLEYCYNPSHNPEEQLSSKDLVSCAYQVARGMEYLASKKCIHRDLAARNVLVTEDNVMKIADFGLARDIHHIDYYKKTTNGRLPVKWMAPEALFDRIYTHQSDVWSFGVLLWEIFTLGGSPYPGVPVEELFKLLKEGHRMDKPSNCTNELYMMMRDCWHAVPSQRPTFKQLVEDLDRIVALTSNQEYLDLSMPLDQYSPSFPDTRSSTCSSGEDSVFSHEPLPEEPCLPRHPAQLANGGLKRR
Chain of 266 human kinases (Homo sapiens, UniProt Q02763, R849W) (Q02763 23-1124 R849W): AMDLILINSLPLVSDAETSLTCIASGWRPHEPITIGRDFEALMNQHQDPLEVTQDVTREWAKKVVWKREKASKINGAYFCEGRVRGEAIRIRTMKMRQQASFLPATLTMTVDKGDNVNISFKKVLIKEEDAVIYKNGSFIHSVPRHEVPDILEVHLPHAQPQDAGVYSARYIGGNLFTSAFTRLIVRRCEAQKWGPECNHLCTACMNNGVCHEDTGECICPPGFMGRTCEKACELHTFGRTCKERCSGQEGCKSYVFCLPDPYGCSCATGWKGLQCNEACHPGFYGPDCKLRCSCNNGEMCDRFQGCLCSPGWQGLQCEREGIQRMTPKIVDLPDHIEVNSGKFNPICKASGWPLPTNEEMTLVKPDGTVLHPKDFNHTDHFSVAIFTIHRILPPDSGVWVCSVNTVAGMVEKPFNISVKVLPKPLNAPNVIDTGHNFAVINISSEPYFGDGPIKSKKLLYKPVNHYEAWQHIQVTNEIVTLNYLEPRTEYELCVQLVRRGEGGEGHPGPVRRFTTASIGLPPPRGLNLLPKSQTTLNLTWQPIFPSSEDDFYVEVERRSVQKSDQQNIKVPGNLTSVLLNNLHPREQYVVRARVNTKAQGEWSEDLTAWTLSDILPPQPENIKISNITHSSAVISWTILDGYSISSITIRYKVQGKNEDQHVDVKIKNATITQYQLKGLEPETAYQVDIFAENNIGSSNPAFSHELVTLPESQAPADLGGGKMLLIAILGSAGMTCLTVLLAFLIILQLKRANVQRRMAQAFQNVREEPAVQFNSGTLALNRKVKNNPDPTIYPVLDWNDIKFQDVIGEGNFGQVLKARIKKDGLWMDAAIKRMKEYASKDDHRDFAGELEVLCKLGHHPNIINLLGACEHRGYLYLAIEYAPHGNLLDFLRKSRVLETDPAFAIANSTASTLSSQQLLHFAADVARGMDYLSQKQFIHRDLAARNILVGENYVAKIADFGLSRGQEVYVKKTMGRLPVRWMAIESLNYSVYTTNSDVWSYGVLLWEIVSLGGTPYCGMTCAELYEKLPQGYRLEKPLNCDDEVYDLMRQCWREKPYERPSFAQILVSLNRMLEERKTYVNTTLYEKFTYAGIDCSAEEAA
Chain of 266 human kinases (Homo sapiens, UniProt Q16832) (Q16832 22-855): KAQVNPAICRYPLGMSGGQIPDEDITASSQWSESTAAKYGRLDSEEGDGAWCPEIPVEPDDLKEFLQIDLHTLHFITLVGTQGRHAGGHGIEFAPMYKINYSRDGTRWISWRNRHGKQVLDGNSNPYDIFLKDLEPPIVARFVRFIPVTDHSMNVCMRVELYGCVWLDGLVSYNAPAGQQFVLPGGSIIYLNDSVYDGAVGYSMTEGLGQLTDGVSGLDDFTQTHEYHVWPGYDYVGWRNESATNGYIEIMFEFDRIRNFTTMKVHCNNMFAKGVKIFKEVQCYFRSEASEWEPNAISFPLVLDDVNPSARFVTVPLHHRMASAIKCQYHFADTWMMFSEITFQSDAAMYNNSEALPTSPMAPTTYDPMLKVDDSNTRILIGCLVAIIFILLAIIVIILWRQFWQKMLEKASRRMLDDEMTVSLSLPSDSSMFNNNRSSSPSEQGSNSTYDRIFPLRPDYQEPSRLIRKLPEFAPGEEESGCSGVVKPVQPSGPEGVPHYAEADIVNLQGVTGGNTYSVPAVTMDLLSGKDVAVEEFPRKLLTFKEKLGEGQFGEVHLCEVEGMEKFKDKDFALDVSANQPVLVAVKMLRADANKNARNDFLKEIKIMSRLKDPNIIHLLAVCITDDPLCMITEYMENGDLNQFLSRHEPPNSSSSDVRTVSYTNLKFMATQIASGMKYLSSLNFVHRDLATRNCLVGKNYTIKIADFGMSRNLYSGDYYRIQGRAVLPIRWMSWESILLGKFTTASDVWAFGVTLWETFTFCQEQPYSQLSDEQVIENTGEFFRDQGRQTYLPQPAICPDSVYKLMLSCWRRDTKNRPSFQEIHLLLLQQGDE

Sequence	% activity (266 human kinases [1]) [%]	% activity (266 human kinases [2]) [%]	% activity (266 human kinases [3]) [%]	% activity (266 human kinases [4]) [%]	% activity (266 human kinases [5]) [%]	% activity (266 human kinases [6]; CDK2/cyclinA(h)) [%]	% activity (266 human kinases [6]; CDK2/cyclinE(h)) [%]	% activity (266 human kinases [7]) [%]	% activity (266 human kinases [8]) [%]	% activity (266 human kinases [9]) [%]	% activity (266 human kinases [10]) [%]	% activity (266 human kinases [11]) [%]	% activity (266 human kinases [12]) [%]	% activity (266 human kinases [13]) [%]	% activity (266 human kinases [14]) [%]	% activity (266 human kinases [15]) [%]
HRRIKAWLKKIKALARQLGVAA (mammal) [MMI-0500]	2	50	13	29	170	87	19	73	175	2	79	5	38	110	–	–
YARAAARQARAKALNRQLGVA (mammal) [MMI-0200]	–	–	–	–	–	–	–	–	–	–	–	–	–	–	72	89

Reference: patent US20140072613A1, “Compositions and Methods for Treating Cutaneous Scarring” (priority 2012, published 2014)
